The record followed here is the nanobody polyreactivity screen of Harvey et al. (2022).

The data set in a line: yeast display, Sf9 membrane polyspecificity reagent, FACS + sequencing; frameworks hold sequencing errors. In short, it runs like this:
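Galactose-induced (36–48 hours) yeast carrying a synthetic nanobody display library were exposed to 10% biotinylated, detergent-solubilized Sf9 membrane reagent at 4 °C for 1 hour. FACS followed streptavidin microbead enrichment, using low and high (top ~1%) gates for expression (anti-HA) and reagent binding (streptavidin). Colony PCR, MiSeq 2 × 250 sequencing and CDR-length filtering followed. Labels for polyreactivity reflect the gate of origin.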
For the sequence “QVQLVESGGGLVQAGGSLRLSCAASGITIYGYAMGWYRQAPGKERELVAAISFRSGSTYYADSVKGRFTISRDNAKNTVYLQMNSLKPEDTAVYYCATDRYYRDDYWGQGTQVTVSS”, the “polyreactivity (PSR sort gate)” value is “low polyreactivity”.
Consider “QVQLVESGGGLVQAGGSLRLSCAASGITIYRNAMGWYRQAPGKEMELVAAITRNGGRTYYADSVKGRFTISRDNAKNTVYLQMNSLKPEDTAVDYCAADSGTRNLASYRYYYWGQGTQVTVSS”, for which the “polyreactivity (PSR sort gate)” value was “high polyreactivity”.
Under “QVQLVESGGGLVQAGGSLRLSCAASGITIYWYAMGWYRQAPGKERELVAAITRSVGSTYYADSVKGRFTISRDNAKNTVYLQMNSLKPEDTAVYYCAADFYYYGFDYWGQGTQVTVSS” stands “low polyreactivity”; under “QVQLVESGGGLVQAGGSLRLSCAASGITLFHYVMGWYRQAPGKERELVADITWRGGNTFYADSVKGRFTISRDNAKNTVYLQMNSLKPEDTAVYYCAVRQAYRTRDYDYWGQGTQVTVSS”, “high polyreactivity”; under “QVQLVESGGGLVQAGGSLRLSCAASGITLGAYAMGWYRQAPGKERELVARIRIGGSTYYADSVKGRFTISRDNAKNTVYLQMNSLKPEDTAVYYCNRDFWYGVATGREFYLYDYWGQGTQVTVSS”, “low polyreactivity”.
For “QVQLVESGGGLVQAGGSLRLSCAASGITLGYSAMGGYRQAPGKEREFVAGITTSGGTTYYADSVKGRFTISRDNAKNTVYLQMNSLKPEDTAVYYCAVYGGVKRGSFYYWGQGTQVTVSS” the value was “low polyreactivity”; for “QVQLVESGGGLVQAGGSLRLSCAASGITLKYYAIGWYIQAPGKERELVAAITRSGVGTYYADSVKGRFTISRDNAKNTVYLQMNSLKPEDTAVYYCAAASYQSRYWNYYWGQGTQVTVSS”, “high polyreactivity”; for “QVQLVESGGGLVQAGGSLRLSCAASGITLNGYVMGWYRQAPGKEREFVAVISSRGGSTYYADSVKGRFTISRDNAKNTVYLQMNSLKPEDTAVYYCAARWGYSRRGYRGYDYWGQGTQVTVSS”, “high polyreactivity”.
Under “QVQLVESGGGLVQAGGSLRLSCAASGITLNRNAMGWYRQAPGKERELVARISRRGGTTYYADSVKGRFSISRDNAKNTVYLQMNSLKPEDTAVYYCNAGPYGGNPFDYWGQGTQVTVSS” stands “high polyreactivity”; under “QVQLVESGGGLVQAGGSLRLSCAASGITLSIYAMGWYRQAPGKERELVAAIDWSDGSTYYADSVKGRFTISRDNAKNTVYLQMNSLKPEDTAVYYCAAEYHWSYWWPTDDYWGQGTQVTVSS”, “high polyreactivity”; under “QVQLVESGGGLVQAGGSLRLSCAASGITLSVYAMGWYRQAPRKERELVASISSGGTSTYYADSVKGRFTISRDNAKNTVYLLMISLKPEDTAVYYCAAYSYYTGDQYSYDYWGQGTQVTVSS”, “low polyreactivity”.
Consider “QVQLVESGGGLVQAGGSLRLSCAASGITLTVYTMGWYRQAPGKERKLVAAITYGGTSTYYADSVKGRFTISRDNAKNTVYLQMNSLKPEDTAVYYCNVAFGYSYRGRDYWGQGTQVTVSS”, for which the “polyreactivity (PSR sort gate)” value is “high polyreactivity”.
On to “QVQLVESGGGLVQAGGSLRLSCAASGITLVFNAMGWYRQAPGKERELVAAITSGGITNYADSVKGRFTISRDNAKNTVYLQMNSLKPEDTAVYYCATDYGYFHYPWCPLWGYEYWGQGTQVTVSS”, for which the “polyreactivity (PSR sort gate)” value is given as “low polyreactivity”.
For “QVQLVESGGGLVQAGGSLRLSCAASGITLVRYAMGWYRQAPGKERELVAAISSSGGSTYYADSVKGRFTISRDTAKNTVYLQMNSLKPEDTAVYYCNAYVHSRRVEFNYWGQGTQVTVSS” the value was “high polyreactivity”.
Under “QVQLVESGGGLVQAGGSLRLSCAASGITLWQSAKGWYRQAPGKERELVAGITDTGDSTYYADSVKGRFTISRDNAKNTVYLQMNSLKPEDTAVYYCAVPRSALLRAPYELYSWGQGTQVTVSS” stands “low polyreactivity”; under “QVQLVESGGGLVQAGGSLRLSCAASGITLYKYTMGWYRQAPGKERELVAAISGGGSTTYADSVKGRFTISRDNAKNTVYLQMNSLKPEDTAVYYCNVPGGKPSYYEEYGYWGQGTQVTVSS”, “low polyreactivity”.
As for “QVQLVESGGGLVQAGGSLRLSCAASGITLYRYVMGWYRQAPGKERELVADISGRGTSTYYADSVKGRFTISRDNAKNTVYLQMNSLKPEDTAVYYSNSEYTKTGALVIPYTYYYAEDYWGQGTQVTVSS”, the “polyreactivity (PSR sort gate)” value is listed as “low polyreactivity”.
Under “QVQLVESGGGLVQAGGSLRLSCAASGITLYSYAMGWYRPAPGKERELVAAISWDGGGTYYADSVKGRFTISRDNAKNTVYLQMNSLKPEDTAVYYCAADTQYTDGDSWGQGTQVTVSS” stands “high polyreactivity”; under “QVQLVESGGGLVQAGGSLRLSCAASGITSDFNAMGWYRQAPGKERELVAITWNGGSTYYADSVKGRFTISRDNAKNTVYLQMNSLKPEDSAVYYCAARYRRYNRIYDYWGQGTQVTVSS”, “high polyreactivity”; under “QVQLVESGGGLVQAGGSLRLSCAASGITSRLYAMGWYRQAPGKERELVAAINSIDGSTNYADSVKGRFTISRDNAKNTVYLQMNSLKPEDTAVYYCNKRYGYTGFSPRYDYWGQGTQVTVSS”, “low polyreactivity”.
Under “QVQLVESGGGLVQAGGSLRLSCAASGITSRPNAMGWYRQAPGKERELVAAISGSGGRTYYADSVKGRFTISRDNAKNTVYLQMNSLKPEDTAVYYCNAVGGGRWYEYWGLGTQVTVSS” stands “high polyreactivity”; under “QVQLVESGGGLVQAGGSLRLSCAASGITYRWKAMGWYRQAPGKERELVAAITTRGGGTYYAVSVKGRFTISRDNAKNTVYLQMISLKPEDTAVYYCAAKKSRYPYNYWGQGTQVTVSS”, “high polyreactivity”.
On to “QVQLVESGGGLVQAGGSLRLSCAASGITYRYAMGCYRQAPGKERELVAAITSSGASTYYADSVKGRFTISRDNAKNTVYLQMNSLKPEDTAVYYCATPLRKVYGGYEYWGQGTQVTVSS”, for which the “polyreactivity (PSR sort gate)” value is recorded as “low polyreactivity”.
Under “QVQLVESGGGLVQAGGSLRLSCAASGITYRYNAMGWYRQAPGKEREMVAAISTSGGNTYYADSVKGRFTISRDNAKYTVYLQLNSLKPEDTAVYYCAVDGEYWYDYDGDYWGQGTQVTVSS” stands “low polyreactivity”; under “QVQLVESGGGLVQAGGSLRLSCAASGIVRQNPMGWYRQAPGKERELVACISQSGGSTYYADSVKGRFTISRDNAKNTVYLQMNSLKPEDTAVYYCAVVSIWGYDYWGEGTQVTVSS”, “low polyreactivity”; under “QVQLVESGGGLVQAGGSLRLSCAASGIYGFYAMGWYRQPPRKQRELVAAISSVTSTYYADSVKGRFTISRDNAKNTVYLQMNSLKPEDTAVYYCNAYLYSGGLSYDYWGQGTQVTVSS”, “low polyreactivity”.
For “QVQLVESGGGLVQAGGSLRLSCAASGIYYNAMGWYRQAPGKERELVAAITTGDRTNYADSVKGRFTISRDNAKNTVYLQMYSLIPEDTAVYYCKAVVERLSSTARDFAYDYWGQGTQVNVSS” the value was “low polyreactivity”.
Under “QVQLVESGGGLVQAGGSLRLSCAASGLIFARNAMGWYRQAPGKERELVAAITRRGTSTYYADSVKGRFTISRDNAKNTVYLQMNSLKPEDTAVYYCAARGGGGQRYDYWGQGTQVTVSS” stands “high polyreactivity”; under “QVQLVESGGGLVQAGGSLRLSCAASGLIFARNAMGWYRQAPGKETELVAAISKRGGSTYYADSVKGRFTISRDNAKNTVYLQMNSLKPDDTAVYYCNARYFRWWDMGYWGQGTQVNVSS”, “high polyreactivity”; under “QVQLVESGGGLVQAGGSLRLSCAASGLIFARYATGWYRQAPGKERELVAAITDTGDITYSADSVKGRFTISRDNAKNTVYLQMNSLKPEDTGVYYCNADGVESVGGVETLYWRGGYWGQGTQVTVSS”, “low polyreactivity”.
